The text below walks through data of patent US20240026407A1, “MODIFICATION OF SAPONINS” (GLAXOSMITHKLINE BIOLOGICALS SA, priority 2020, published 2024).

Data set [1] in a line: Example 8: screening of glucosidase variants for deglycosylation of saponins in crude bark extract (FIOP). The class given is biochemical, Quillaja saponaria. The following applies: for Cumulative FIOP (cf WT): estimate; for FIOP: fold improvement over parent. On the procedure:
Libraries of genetic variants encoding mutations in the wild type Modestobacter marinus glucosidase (SEQ ID No. 262) were prepared using molecular biology techniques, enzymes were prepared linked to an N-terminally located His-tag. Single monoclonal colonies were grown in 400 ul of expression medium and protein expressed. Cell pellets were lysed in 200 ul of the relevant buffer (Table 16)
Lysate was diluted appropriately in the relevant buffer to allow a lysate loading of the indicated % loading (1% loading corresponds to use of 2 ul original lysate in a 200 ul reaction). In some experiments a rhamnosidase was also present during the screening reaction (and also in controls, negating any impact on results).
Crude bark extract (CBE) obtained by aqueous extraction of Quillaja saponaria and containing at least 2.80 mg/ml QS-21 (by HPLC-UV). The pH of CBE was adjusted to pH 6 by dropwise addition of 2M NaOH with stirring. The relevant concentration of the relevant glucosidase was added. The appropriate relative volume of pH 6 CBE (160 ul (for 80%) or 150 ul (for 75%)) was added to each well of the reaction plate. The reaction plate was sealed and incubated at the relevant temperature with shaking overnight for between 18 and 22 hours.
The reaction plate was quenched by adding 200 uL of MeCN (2% AcOH, 1 mg/mL hexanophenone) to each well of the plates. The quenched reaction plate was re-sealed and incubated at 20 deg C. with shaking for 10 min. The reaction plate was then centrifuged (10 min, 4 degC).
200 uL was transferred from each well of the quenched plate to the corresponding wells of a fresh 96 well plate and sealed. The plate was analysed by UV HPLC with the method below:
A negative control (a lysate not expressing test enzymes) and a positive control (expressing the parent comparator—wild type or previous variant as appropriate). Fold improvement over parent (FIOP) for the glucosidase (shorter method) is calculated as follows:
% right peak=100*right peak area/(right peak area+left peak area)
Average % right peak area is calculated for negative controls (per plate) and subtracted from all wells to give the increase in % right peak for each well above average negative control Average increase in % right peak is calculated for positive controls per plate
FIOP=observed increase in % right peak divided by average positive control increase

The nature of data set [2]: Example 10: deglucosylation of saponins in crude bark extract (50%) using WT and engineered glucosidases G1 to G5. It counts as biochemical, Quillaja saponaria. To be noted: 50% CBE, 35 degC; for % Right Peak: starting CBE 26; for % Left Peak: starting CBE 30; for % Middle Peak: starting CBE 44. The procedure:
Lyophilised powders from clarified cell lysate expressing glucosidases (from Example 8 WT glucosidase and engineered glucosidase polypeptides G1 to G5) and rhamnosidases (from Example 9 WT rhamnosidase and engineered rhamnosidase polypeptides R1 to R5) were dissolved in 200 mM sodium acetate aqueous solution at pH 5.8 to prepare the enzyme solutions at 4 fold the final reaction concentration as shown in Tables 19 and 20.
Each glucosidase solution was combined with an equal volume of 200 mM sodium acetate aqueous solution at pH 5.8 and separately with an equal volume of 200 mM sodium acetate aqueous solution at pH 5.8 containing 2 mg/ml rhamnosidase R5. This is a sufficient loading of rhamnosidase to effect complete hydrolysis of the relevant rhamnose moiety within 4 hours.
CBE was adjusted to pH of 6.0 to 6.2 with 2M sodium hydroxide and an equal volume added to the enzyme solution to prepare the reaction mix (i.e. 50% CBE concentration in reaction mix) and the concentration of glucosidase and/or rhamnosidase is shown in Tables 19 and 20. The reaction mix was heated to 35 degC for the time indicated in Tables 19 and 20, after which the reaction was quenched by addition of an equal volume of MeCN containing 2% acetic acid and shaken at room temperature for 10 mins prior to centrifugation (10 min, 4 degC) to remove particulates. Samples were analysed by UV HPLC using method of Experiment 4-4.
The change in composition of the Left, Middle and Right peaks is shown in Tables 19 and 20. The composition changes by the action of the enzymes depending on the presence or absence of the partner enzyme. The extent of reaction is proportional to the enzyme concentration and the reaction time under these conditions. The tables show data for enzyme concentrations and the reaction times providing for equivalent extents of reaction. The improvement resulting from the mutations introduced for each variant is equal to the fold change in enzyme concentration×time (i.e. fold improvement=(enzyme concentration×time) for preceding variant÷(enzyme concentration×time) for later variant). A cumulative fold improvement over the original enzyme variant is calculated by the product of the individual fold improvements.

The mark [3] stands for this setting: screen temp 35, pH 6, lysate loading 0.14%, CBE loading 75%, 100 mM Sodium acetate, Rham Present.
[4] abbreviates: glucosidase 0.1 mg/ml + rhamnosidase R5 0.5 mg/ml, 4 h.
Setting [5] is: glucosidase 0.1 mg/ml, no rhamnosidase, 4 h.
Where [6] appears, read: screen temp 20, pH 6, lysate loading 10%, CBE loading 80%, 100 mM Potassium phosphate, Rham None.
[7] abbreviates: glucosidase 1.56 mg/ml + rhamnosidase R5 0.5 mg/ml, 7 h.
Where [8] appears, read: glucosidase 1.56 mg/ml, no rhamnosidase, 7 h.

B1: Variant G5: engineered glucosidase polypeptide, variant of Modestobacter marinus glucosidase SEQ ID No. 262 (protein)
chain: MNPASSTRTDTMTDTTARTDSRLTDALAALSLEQKVQLLTGRDYWNTWPIEEIGLRRILVSDGPSGVRGEVWDERDPSLNLPSATALASAWDPDIARRYGAAAAVEARRKGVDVVLGPTINLHRSPLGGRHFEAFSEDPVLTAELAAAYVTGVQDNGVGATPKHYVANDFETDRFTVDVRADERTLRELYLLAFEKAVTEARAWLVMSAYNGINGATATENDLLETPLNSEWGFDGVVVSDWTAVRSLESARSSQDLVMPGPLGPWGDALVEAVRTGAIDESVVDRKVLRILTLAQRVGALEGSPAIDPVWVEDGVALAREAAVEGTVLLENRDELPWDATSLRKVAVIGNNAAWAMTQGGGSANVCPEYTVSPLDGVRAALPDAEVSYSLGAVVRDGLVELPLAELTNPVTGGPGLRARFLTADGAELFGEDRRKSVLVYQGGDAPIAAAATYELTARWTPTESQTVRLGFACFGAAQLYVDGELLVESDLQPSGTDLGAAFMNPLTASAEVELVAGKPVDVRLVHDLSAKEGFAAHALILQLGTEPAEVDEDALIAEAAEAAEAADVVLVVVGTNSIVESEGYDRESLSLPGRQDDLVRAVVAANPRTVVLVNAGAPVLLPWRDDVAALLLGWFGGQEFGNAVADVLLGVAEPGGRLPTTWPAAEADVPVLSCTPVDGVVEYTEGIHIGYRAWLRSGATPAYWFGSGQGYTCVELTGVEAPSRARPGEIVTVSVEVANRGERDGKQVVQVYAEKPDSTVDRPVRWLVGSAPVRVPAGQTAQVEVAVPTRYLAHWAGGWQYEPGVYRLRVGTTAVELPLETTLEVSA
modifications: Seq ID No. 262 with mutations F44Y, V263L, R357M, T365N, F442Q, L474C, I475F, F541I, A355W, L367C, Q396R
Regarding B1, in data set [1] (setting [3]), the “Cumulative FIOP (cf WT)” value is listed as 900 and the FIOP was found to be 3. Besides, the “time to complete hydrolysis of the relevant glucose moiety” value in data set [2] (2 mg/ml glucosidase G5 solution (before mixing with rhamnosidase solution and CBE)) was at most 4 h. The “cumulative fold improvement over WT glucosidase” value in data set [2] (from enzyme concentration x time for equivalent extent of reaction) is on record as “approximately 800 fold”. Further, in data set [2] (setting [4]), the “% change in Left Peak” value was −34%, the “% change in Middle Peak” value is given as −83%, the “% change in Right Peak” value was determined as 280% and the “Cumulative Fold improvement in primary enzyme loading × time” value was determined as 834. In data set [2] (setting [4]), the “Fold improvement in primary enzyme loading × time” value worked out at 6.5, the “% Right Peak” value is 73%, the “% Left Peak” value is on record as 20% and the “% Middle Peak” value is on record as 7%. In data set [2] (setting [5]), the “% change in Left Peak” value is on record as −11%, the “% change in Middle Peak” value is on record as −56%, the “% change in Right Peak” value was found to be 208% and the “Cumulative Fold improvement in primary enzyme loading × time” value worked out at 834. In data set [2] (setting [5]), the “Fold improvement in primary enzyme loading × time” value is listed as 6.5, the “% Right Peak” value stood at 54%, the “% Left Peak” value stood at 27% and the “% Middle Peak” value was 19%.

B2: Variant G2: engineered glucosidase polypeptide, variant of Modestobacter marinus glucosidase SEQ ID No. 262 (protein)
chain: MNPASSTRTDTMTDTTARTDSRLTDALAALSLEQKVQLLTGRDFWNTWPIEEIGLRRILVSDGPSGVRGEVWDERDPSLNLPSATALASAWDPDIARRYGAAAAVEARRKGVDVVLGPTINLHRSPLGGRHFEAFSEDPVLTAELAAAYVTGVQDNGVGATPKHYVANDFETDRFTVDVRADERTLRELYLLAFEKAVTEARAWLVMSAYNGINGATATENDLLETPLNSEWGFDGVVVSDWTAVRSLESARSSQDLVMPGPVGPWGDALVEAVRTGAIDESVVDRKVLRILTLAQRVGALEGSPAIDPVWVEDGVALAREAAVEGTVLLENRDELPWDATSLRKVAVIGNNAAAAMTQGGGSANVLPEYTVSPLDGVRAALPDAEVSYSLGAVVQDGLVELPLAELTNPVTGGPGLRARFLTADGAELFGEDRRKSVLVYFGGDAPIAAAATYELTARWTPTESQTVRLGFFCFGAAQLYVDGELLVESDLQPSGTDLGAAFMNPLTASAEVELVAGKPVDVRLVHDLSAKEGFAAHALFLQLGTEPAEVDEDALIAEAAEAAEAADVVLVVVGTNSIVESEGYDRESLSLPGRQDDLVRAVVAANPRTVVLVNAGAPVLLPWRDDVAALLLGWFGGQEFGNAVADVLLGVAEPGGRLPTTWPAAEADVPVLSCTPVDGVVEYTEGIHIGYRAWLRSGATPAYWFGSGQGYTCVELTGVEAPSRARPGEIVTVSVEVANRGERDGKQVVQVYAEKPDSTVDRPVRWLVGSAPVRVPAGQTAQVEVAVPTRYLAHWAGGWQYEPGVYRLRVGTTAVELPLETTLEVSA
modifications: Seq ID No. 262 with mutations T365N, R357M, A473F, L474C, I475F
Turning to B2, in data set [1] (setting [6]), the “Cumulative FIOP (cf WT)” value is 50 and the FIOP turned out to be 10. Moreover, in data set [2] (setting [7]), the “% change in Left Peak” value is −26%, the “% change in Middle Peak” value is listed as −82%, the “% change in Right Peak” value was 269% and the “Cumulative Fold improvement in primary enzyme loading × time” value is recorded as 32. Further, in data set [2] (setting [7]), the “Fold improvement in primary enzyme loading × time” value is 4.0, the “% Right Peak” value was determined as 70%, the “% Left Peak” value is reported as 22% and the “% Middle Peak” value was 8%. Besides, in data set [2] (setting [8]), the “% change in Left Peak” value is on record as −15%, the “% change in Middle Peak” value is −57%, the “% change in Right Peak” value was determined as 213% and the “Cumulative Fold improvement in primary enzyme loading × time” value was determined as 32. In addition, in data set [2] (setting [8]), the “Fold improvement in primary enzyme loading × time” value was found to be 4.0, the “% Right Peak” value is given as 55%, the “% Left Peak” value came out at 26% and the “% Middle Peak” value stood at 19%.
